From paper doi:10.1101/2024.03.07.583884

How the values were obtained:
[1] = target: mACE 1-357 ACE2-Cherry hybrid (mouse | human) (UniProt Q8R0I0)
[2] = target: Pus8AA+LMY➔A-ACE2-Cherry (human) (UniProt Q9BYF1)

OM.BA.1-RBD-β2AR-GFP (from UniProt P0DTC2 333-529) (domain or fragment)
loss of ACE2 fluorescence, DPF assay [1]: 24.8% | reduction of Pus8AA +LMY➔A-Cherry fluorescence, DPF assay [2]: 17.2%
